Key:
[1] = target: T1, yeast small ubiquitin-like modifier (ySUMO) (yeast, UniProt Q12306 1-98 = SUMO, limits assumed); test: yeast surface display titration, KD column of the drawn table [b]
T1 construct: Target protein of the library selection; Construct not described

[2] = target: T1, yeast small ubiquitin-like modifier …; test: yeast surface display: therMonobody on yeast, soluble target titrated 0-2000 nM, mean fluorescence, fit of the 1:1 binding model
Source text: (§1) FIG. 6A-C. therMonobody library designs and generated clones. Amino acid sequences of therMonobodies generated from the loop-only library (a) and the side-and-loop library (b). The locations of diversified residues in the libraries are shown as spheres on the STOTEMP4 structure. “X” denotes a mixture of 30% Tyr, 13% Ser, 10% Gly, 5% Asp, 5% Leu, 5% Pro, 5% Trp and 2.5% each of all pther amino acids except for Cys and Met; “B”, a mixture of Ala, Ser, Thr, Asn, Asp and Tyr; “U”, a mixture of Ser, Thr, Asn and Tyr; “Z”, a mixture of Ala, Glu, Lys and Thr. (c) Binding measurements by yeast surface display of representative therMonobodies for each combination of library and target. The mean fluorescence intensities of yeast cells displaying therMonobodies are plotted as a function of the target concentration. The error indicated are the standard deviations from curve fitting of the 1:1 binding model.

Abl SH2 [3] = target: T2, Abl SH2 (UniProt P00519 127-217, limits assumed); test: yeast surface display titration, KD column of the drawn table [b]
T2 construct: domain: SH2; Target protein of the library selection
T2 sequence (looked up): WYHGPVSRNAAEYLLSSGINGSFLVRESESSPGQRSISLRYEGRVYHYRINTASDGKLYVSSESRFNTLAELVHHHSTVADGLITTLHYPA

Abl SH2 [4] = target: T2, Abl SH2; test: yeast surface display: therMonobody on yeast, soluble target titrated 0-1000 nM, mean fluorescence, fit of the 1:1 binding model
Source text: as §1

Abl SH2 [5] = target: T2, Abl SH2; test: yeast surface display titration, KD column of the drawn table [a]
[6] = target: T3, maltose-binding protein (MBP) (UniProt P0AEX9 27-396 = MBP); test: yeast surface display: therMonobody on yeast, soluble target titrated 0-1000 nM, mean fluorescence, fit of the 1:1 binding model
Source text: as §1

[7] = target: T3, maltose-binding protein (MBP); test: yeast surface display titration, KD column of the drawn table [b]
[8] = target: T1, yeast small ubiquitin-like modifier …; test: yeast surface display titration, KD column of the drawn table [a]
[9] = target: T3, maltose-binding protein (MBP); test: as above

T1 sequence (Q12306 1-98 limits assumed): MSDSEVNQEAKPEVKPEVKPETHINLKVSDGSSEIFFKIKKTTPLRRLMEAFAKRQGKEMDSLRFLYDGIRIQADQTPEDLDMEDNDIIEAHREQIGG

B1: SUMOMbS34 (designed binder)
therMonobody (FN3 domain): SSSSVPQIASIASGPETITVKWYDTNASYYYIYYWSGPYYYKKVTITVGNVTSYTIKHLKPGVTYYIQIVPYHVHDWGYYYYPSDIISATPSSS
notes: side-and-loop library clone selected on ySUMO
[1]
  Kd: 20 nM
[2]
  Kd: 20 nM

B2: AblSH2MbS07 (designed binder)
therMonobody (FN3 domain): SSSSVPQIASIASGPETITVKWYDTNASYYYIYYWSSYPVTEEVEIKVGNVTSYTIKHLKPGVTYYIQIVPGYYSYPYYLSPSDIISATPSSS
notes: side-and-loop library clone selected on Abl SH2
Abl SH2 [3]
  Kd: 827 nM

B3: AblSH2MbL04 (designed binder)
therMonobody (FN3 domain): SSSSVPQIASIASGPETITVKWYYYSIDVYYYITYWSSSSQKVTINVGPQTSYTIKHLKPGVTYYIQIVPYSFYSDSDYGYYPSDIISATPSSS
notes: loop-only library clone selected on Abl SH2
Abl SH2 [4]
  Kd: 78 nM
Abl SH2 [5]
  Kd: 78 nM

B4: SUMOMbS08 (designed binder)
therMonobody (FN3 domain): SSSSVPQIASIASGPETITVKWYDTNASYYYIYYWSLQYYREAVKIEVGNVTSYTIKHLKPGVTYYIQIVPFEEFGFGWYSGDPSDIISATPSSS
notes: as for B1
[1]
  Kd: 65 nM

B5: MBPMbS09 (designed binder)
therMonobody (FN3 domain): SSSSVPQIASIASGPETITVKWYDTNASYYYISYWSYSTATVAIAVGNVTSYTIKHLKPGVTYYIQIVPYYGYRPYPSYGYPSDIISATPSSS
notes: side-and-loop library clone selected on MBP
[6]
  Kd: 9 nM
[7]
  Kd: 9 nM

B6: MBPMbS01 (designed binder)
therMonobody (FN3 domain): SSSSVPQIASIASGPETITVKWYDTNASYYYISYWSADYDSEAVAIAVGNVTSYTIKHLKPGVTYYIQIVPYKANSYYPGYGYPSDIISATPSSS
notes: as for B5
[7]
  Kd: 33 nM

B7: SUMOMbL14 (designed binder)
therMonobody (FN3 domain): SSSSVPQIASIASGPETITVKWYDTNASYYYITYWSSSSQKVTINVGSPISYTIKHLKPGVTYYIQIVPYYTIGPDEYYYIPSDIISATPSSS
notes: loop-only library clone selected on ySUMO
[8]
  Kd: 44 nM
[2]
  Kd: 44 nM

B8: MBPMbS12 (designed binder)
therMonobody (FN3 domain): SSSSVPQIASIASGPETITVKWYDTNASYYYISYWSGQSETVAIEVGNVTSYTIKHLKPGVTYYIQIVPYYPGYYPVHYVPSDIISATPSSS
notes: as for B5
[7]
  Kd: 484 nM

B9: AblSH2MbS02 (designed binder)
therMonobody (FN3 domain): SSSSVPQIASIASGPETITVKWYDTNASFYYIYYWSTYPVTEEVEIKVGNVTSYTIKHLKPGVTYYIQIVPQYWYLGAGYPSDIISATPSSS
notes: as for B2
Abl SH2 [4]
  Kd: 13 nM
Abl SH2 [3]
  Kd: 13 nM

B10: SUMOMbS20 (designed binder)
therMonobody (FN3 domain): SSSSVPQIASIAVGPETITVKWYDTNASYYYIYYWSKHPKKVKIEVGNVTSYTIKHLKPGVTYYIQIVPFISYYDLYYSGDPSDIISATPSSS
notes: as for B1
[1]
  Kd: 95 nM

B11: MBPMbL17 (designed binder)
therMonobody (FN3 domain): SSSSVPQIASIAVGPETITVKWYRIPHAYYYYITYWSSSSQKVTINVGNVTSYTIKHLKPGVTYYIQIVPYYPSPWYLSYGYPSDIISATPSSS
notes: loop-only library clone selected on MBP
[9]
  Kd: 41 nM

B12: MBPMbL08 (designed binder)
therMonobody (FN3 domain): SSSSVPQIASIASGPETITVKWYWSSYYWSPFYYYITYWSSSSQKVTINVGNVTSYTIKHLKPGVTYYIQIVPYWYQYFPRYGYPSDIISATPSSS
notes: as for B11
[6]
  Kd: 12 nM
[9]
  Kd: 12 nM
